US20240209086A1 (PETMEDIX, published 2024)

Molecular target: canine CD3 on canine T cells (canine PBMC) (canine, UniProt P27597 22-202)
Experiment: cell-based or functional assay

Chain of canine CD3 on canine T cells (canine PBMC) (P27597 22-202 limits assumed, chain 1 of 3): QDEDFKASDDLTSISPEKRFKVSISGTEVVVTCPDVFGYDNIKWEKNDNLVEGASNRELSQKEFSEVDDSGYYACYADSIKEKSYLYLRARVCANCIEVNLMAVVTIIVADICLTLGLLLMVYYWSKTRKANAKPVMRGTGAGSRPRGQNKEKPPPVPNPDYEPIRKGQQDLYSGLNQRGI
Chain of canine CD3 on canine T cells (canine PBMC) (chain, as listed by the source limits assumed, chain 2 of 3): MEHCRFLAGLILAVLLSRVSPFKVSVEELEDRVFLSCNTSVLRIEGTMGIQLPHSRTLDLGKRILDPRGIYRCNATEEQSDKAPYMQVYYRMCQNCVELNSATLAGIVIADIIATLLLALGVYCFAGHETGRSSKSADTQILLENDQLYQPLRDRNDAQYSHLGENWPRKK
Chain of canine CD3 on canine T cells (canine PBMC) (chain, as listed by the source limits assumed, chain 3 of 3): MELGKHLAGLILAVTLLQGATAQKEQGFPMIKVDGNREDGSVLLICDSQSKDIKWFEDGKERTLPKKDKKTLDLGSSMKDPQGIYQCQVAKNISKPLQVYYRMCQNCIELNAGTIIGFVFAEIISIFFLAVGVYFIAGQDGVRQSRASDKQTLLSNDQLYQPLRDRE

Binder	CD25 Activation, Day 6, IS	CD25 Activation, Day 6, PB	CD25 Activation, Day 9, IS	CD25 Activation, Day 9, PB	IFNy Concentration pg/ml, Day 6, IS [pg/mL]	IFNy Concentration pg/ml, Day 9, IS [pg/mL]	IFNy Concentration pg/ml, Day 9, PB [pg/mL]	Ki67 Proliferation, Day 6, IS	Ki67 Proliferation, Day 6, PB	Ki67 Proliferation, Day 9, IS
PMX157 (monospecific anti-canine CD3, canine IgG-B effector function deficient Fc) (antibody, V domains shown) VH: ELTLQESGPGLVKPSQTLSLTCVVSGGSVTSSYFWNWIRQRPGRGLEWMGYWTGSTIYSPAFQGRISITPDTAKNQFSLQLSSMTTEDTAVYYCSREGGSTLGAFAYWGQGTLVTVSS VL: SYVLTQLPSKNVTLKQPAHITCGGDKIGSKSVHWYQQKLGQAPVLIIYYDSSRPTGIPERFSGANSGNTATLTISGALAEDEADYYCQVWDSSAKASVFGGGTHLTVL	9.65	11.6	9.96	8.72	44.4	209	3140	1.24	0.4	0.85
PMX170 (monospecific anti-canine CD3, canine IgG-B effector function deficient Fc) (antibody) heavy: EVQLVESGGDLVKPGGSLRLSCVASGFTFSSYHMSWVRQAPGKGLQWVAYSNSGGSRTSYADAVKGRFTISRDNAKNTLYLQMSSLRAEDTAVYYCASEGGGGRYGFKDYGMDYWGHGTSLFVSSASTTAPSVFPLAPSCGSTSGSTVALACLVSGYFPEPVTVSWNSGSLTSGVHTFPSVLQSSGLYSLSSMVTVPSSRWPSETFTCNVAHPASKTKVDKPVPKRENGRVPRPPDCPKCPAPESLGGPSVFIFPPKPKDTLLIARTPEVTCVVVDLGREDPEVQISWFVDGKQMQTAKTQPREEQFNGTYRVVSVLPIGHQDWLKGKQFTCKVNHIGLPSPIERTISKARGQAHQPSVYVLPPSREELSKNTVSLTCLIKDFFPPDIDVEWQSNGQQEPESKYRTTPPQLDEDGSYFLYSKLSVDKSRWQRGDTFICAVMHEALHNHYTQKSLSHSPGK VL: SYVLTQLPSKNVTLKQPAHITCGGDNIGSKSVHWYQQKLGQAPVLIIYYDSSRPTGIPERFSGANSGNTATLTISGALAEDEADYYCQVWDSSAKAWVFGEGTQLTVL	9.44	11.8	7.39	11.3	71.3	114	282	1.99	0.27	0.79
PMX167 (monospecific anti-canine CD3, canine IgG-B effector function deficient Fc) (antibody, V domains shown) VH: EVKLVESGGDLVKPGGSLRLSCMASGFTLNNYYMSWVRQAPGKGLQWVAYIKSGGSDTSYVDAVKGRFTISRDNAKNTLHLQMNSLRVEDTAVYYCATDGYIWAWGQGTLVTVSS VL: SYVLTQLPSKNVTLKQPAHITCGGDNIGSKSVHWYQQKLGQAPVLIIYYDNSRPTGIPERFSGAKSGNTATLTISGALAEDEADYYCQVWDSSSKAYVFGSGTQLTVL	7.09	4.93	11.6	12.8	63.5	802	1290	1.55	0	2.66

Continued, values first:

CD25 Activation, Day 6, IS	CD25 Activation, Day 6, PB	CD25 Activation, Day 9, IS	CD25 Activation, Day 9, PB	IFNy Concentration pg/ml, Day 6, IS [pg/mL]	IFNy Concentration pg/ml, Day 9, IS [pg/mL]	IFNy Concentration pg/ml, Day 9, PB [pg/mL]	Ki67 Proliferation, Day 6, IS	Ki67 Proliferation, Day 6, PB	Ki67 Proliferation, Day 9, IS	Binder
8.02	12.6	13.7	18.4	28.8	763	2210	1.41	1.37	3.19	PMX177 (monospecific anti-canine CD3, canine IgG-B effector function deficient Fc) (antibody, V domains shown) VH: EVTLQESGPGLVKPSQTLSLTCVVSGGSVTSSFYWNWIRQRPGRGLEWMGYWTGSTNYNPAFQGRISITADTAKNQFSLHLGSMTTDDTAMYYCAREEGSWGRVYFDYWGQGTLVTVSS VL: SYVLTQLPSKNVTLKQPAHITCGGDNIGSKSVHWYQQKLGQAPVLIIYYDSSRPTGIPERFSGANSGNTATLTISGALAEDEADYYCQVWDSSTKTWVFGEGTQLTVL
10.3	9.61	12.3	10.1	30.3	278	594	0.93	1.45	2.2	PMX176 (monospecific anti-canine CD3, canine IgG-B effector function deficient Fc) (antibody, V domains shown) VH: EVQLVESGGDLVKPGGSLRLSCVASGFTFSSYHMSWVRQAPGKGLQWVAYINSAGSTTSYTDAVQGRFTISRDNAKNTLYLQMNSLRAEDTAVYYCASEWIFMPWGQGSLVTVSS VL: SYVLTQLPSKNVTLKQPAHITCGGDNIGSKSVHWYQQKLGQAPVLIIYYDSSRPTGIPERFSGANSGNTATLTISGALAEDEADYYCQVWDSSAKARVFGEGTQLTVL

Same assay, conditions: not given

Binder	Ki67 Proliferation, Day 9, PB
PMX157 (monospecific anti-canine CD3, canine IgG-B effector function deficient Fc) (antibody, V domains shown) VH: ELTLQESGPGLVKPSQTLSLTCVVSGGSVTSSYFWNWIRQRPGRGLEWMGYWTGSTIYSPAFQGRISITPDTAKNQFSLQLSSMTTEDTAVYYCSREGGSTLGAFAYWGQGTLVTVSS VL: SYVLTQLPSKNVTLKQPAHITCGGDKIGSKSVHWYQQKLGQAPVLIIYYDSSRPTGIPERFSGANSGNTATLTISGALAEDEADYYCQVWDSSAKASVFGGGTHLTVL	0.34
PMX170 (monospecific anti-canine CD3, canine IgG-B effector function deficient Fc) (antibody) heavy: EVQLVESGGDLVKPGGSLRLSCVASGFTFSSYHMSWVRQAPGKGLQWVAYSNSGGSRTSYADAVKGRFTISRDNAKNTLYLQMSSLRAEDTAVYYCASEGGGGRYGFKDYGMDYWGHGTSLFVSSASTTAPSVFPLAPSCGSTSGSTVALACLVSGYFPEPVTVSWNSGSLTSGVHTFPSVLQSSGLYSLSSMVTVPSSRWPSETFTCNVAHPASKTKVDKPVPKRENGRVPRPPDCPKCPAPESLGGPSVFIFPPKPKDTLLIARTPEVTCVVVDLGREDPEVQISWFVDGKQMQTAKTQPREEQFNGTYRVVSVLPIGHQDWLKGKQFTCKVNHIGLPSPIERTISKARGQAHQPSVYVLPPSREELSKNTVSLTCLIKDFFPPDIDVEWQSNGQQEPESKYRTTPPQLDEDGSYFLYSKLSVDKSRWQRGDTFICAVMHEALHNHYTQKSLSHSPGK VL: SYVLTQLPSKNVTLKQPAHITCGGDNIGSKSVHWYQQKLGQAPVLIIYYDSSRPTGIPERFSGANSGNTATLTISGALAEDEADYYCQVWDSSAKAWVFGEGTQLTVL	0.47
PMX167 (monospecific anti-canine CD3, canine IgG-B effector function deficient Fc) (antibody, V domains shown) VH: EVKLVESGGDLVKPGGSLRLSCMASGFTLNNYYMSWVRQAPGKGLQWVAYIKSGGSDTSYVDAVKGRFTISRDNAKNTLHLQMNSLRVEDTAVYYCATDGYIWAWGQGTLVTVSS VL: SYVLTQLPSKNVTLKQPAHITCGGDNIGSKSVHWYQQKLGQAPVLIIYYDNSRPTGIPERFSGAKSGNTATLTISGALAEDEADYYCQVWDSSSKAYVFGSGTQLTVL	0.25

Results, then the binder that gave them:

Ki67 Proliferation, Day 9, PB	Binder
0.47	PMX177 (monospecific anti-canine CD3, canine IgG-B effector function deficient Fc) (antibody, V domains shown) VH: EVTLQESGPGLVKPSQTLSLTCVVSGGSVTSSFYWNWIRQRPGRGLEWMGYWTGSTNYNPAFQGRISITADTAKNQFSLHLGSMTTDDTAMYYCAREEGSWGRVYFDYWGQGTLVTVSS VL: SYVLTQLPSKNVTLKQPAHITCGGDNIGSKSVHWYQQKLGQAPVLIIYYDSSRPTGIPERFSGANSGNTATLTISGALAEDEADYYCQVWDSSTKTWVFGEGTQLTVL
0	PMX176 (monospecific anti-canine CD3, canine IgG-B effector function deficient Fc) (antibody, V domains shown) VH: EVQLVESGGDLVKPGGSLRLSCVASGFTFSSYHMSWVRQAPGKGLQWVAYINSAGSTTSYTDAVQGRFTISRDNAKNTLYLQMNSLRAEDTAVYYCASEWIFMPWGQGSLVTVSS VL: SYVLTQLPSKNVTLKQPAHITCGGDNIGSKSVHWYQQKLGQAPVLIIYYDSSRPTGIPERFSGANSGNTATLTISGALAEDEADYYCQVWDSSAKARVFGEGTQLTVL
